Patent US20110243929A1

Legend:
[1] = target: cynomolgus ICOS (cynomolgus); assay: flow cytometry, cynomolgus splenic naive T cells (CD4+ CD45RA+)
[2] = target: cynomolgus ICOS (cynomolgus); assay: flow cytometry, cynomolgus mesenteric lymph node naive T cells (CD4+ CD45RA+)
[3] = target: cynomolgus ICOS (cynomolgus); assay: flow cytometry, cynomolgus mesenteric lymph node activated T cells (CD4+ CD45RA-)
[4] = target: cynomolgus ICOS (cynomolgus); assay: flow cytometry, cynomolgus splenic memory T cells (CD4+ CD45RA-)

Chain of cynomolgus ICOS (cynomolgus) (A0A2K5 entry or part of it limits assumed): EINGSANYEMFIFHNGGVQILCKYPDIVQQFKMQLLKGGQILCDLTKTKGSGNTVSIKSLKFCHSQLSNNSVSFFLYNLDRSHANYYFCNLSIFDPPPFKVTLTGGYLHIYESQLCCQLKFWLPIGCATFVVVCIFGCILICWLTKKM

Isotype Control (antibody)
% of gated cells in the positive quadrant [1]: 1.7% | % of gated cells in the positive quadrant [2]: 2.8% | % of gated cells in the positive quadrant [3]: 1.64% | % of gated cells in the positive quadrant [4]: 2.4%
